Experimental data taken from patent publication US20050169919A1 (published 2005).

B1: CTLA4/CD28Ig hybrid fusion protein HS2 (Fc fusion, human)
chain: AMHVAQPAVVLASSRGIASFVCKYSYNLFSREFRASLHKGLDSAVEVCVVYGNYSQQLQVYSKTGFNCDGKLGNESVTFYLQNLYVNQTDIYFCKIELMYPPPYYLGIGNGTQIYVIDPEPCPD
notes: range 23-96; not shown: hinge and constant regions of human IgG1, hinge cysteines mutated; junction printed DQE
B2: CTLA4/CD28Ig hybrid fusion protein HS6 (Fc fusion, human)
chain: AMHVAQPAVVLASSRGIASFVCEYSYNLFSREVRVTVLRQADSQVTEVCAATYMMGNELTFLDDSICTGTSSGNQVNLTIQGLRAMDTGLYICKVELMYPPPYYLGIGNGTQIYVIDPEPCPD
notes: range 25-32; not shown: hinge and constant regions of human IgG1, hinge cysteines mutated; junction printed DQE
B3: B7 antigen (B7-1) stably expressed on CHO cells (ligand, human, UniProt P33681 35-288, looked up)
chain: VIHVTKEVKEVATLSCGHNVSVEELAQTRIYWQKEKKMVLTMMSGDMNIWPEYKNRTIFDITNNLSIVILALRPSDEGTYECVVLKYEKDAFKREHLAEVTLSVKADFPTPSISDFEIPTSNIRRIICSTSGGFPEPHLSWLENGEELNAINTTVSQDPETELYAVSSKLDFNMTTNHSFMCLIKYGHLRVNQTFNWNTTKQEHFPDNLLPSWAITLISVNGIFVICCLTYCFAPRCRERRRNERLRRESVRPV
notes: whole, on cells; also called B7/BB-1; CD80

Key:
[1] = target: B7Ig fusion protein (human) (UniProt P33681); test: solid phase competition for binding of 125I-B7Ig (4 nM) to immobilized CTLA4Ig
[2] = target: B7 antigen on lymphoblastoid cell line (PM LCL) (human) (UniProt P33681); test: cell-based or functional assay
[3] = target: B3; test: indirect cell binding enzyme immunoassay on ethanol-fixed B7-1+ CHO cells
Description: Round bottom tissue culture treated 96 well microtiter plates (Corning, Corning, N.Y.) were seeded with B7-1 positive CHO cells at 10³ cells/well.

CTLA4Ig fusion protein = target: T1, CTLA4Ig fusion protein (human, UniProt P01857-1 99-330 = IgG part); test: immunoprecipitation from 125I surface-labeled B7+ CHO extract, SDS-PAGE
T1 construct: domain: hinge, CH2 and CH3 regions; also called wild-type CTLA4Ig; human CTLA4Ig
Description: Immunoprecipitation Analysis and SDS PAGE. Cells were surface-labeled with ¹²⁵I and subjected to immunoprecipitation analysis. […] SDS-PAGE chromatography was performed on linear acrylamide gradients gels with stacking gels of 5% acrylamide. Gels were stained with Coomassie Blue, destained, and photographed or dried and exposed to X ray film (Kodak XAR-5).
B7⁺ CHO and PM LCL cells were surface-labeled with ¹²⁵I, and extracted with a non-ionic detergent solution as described above. […] Washed immunoprecipitates were then analyzed by SDS-PAGE (10-20% acrylamide gradient) under reducing conditions. The gel was then dried and subjected to autoradiography.

Molecule: murine monoclonal antibody BB-1 (anti-B7 antigen)
- IC50 [1]: 22 nM
- inhibition of Th-induced IgM production by allogeneic CD19+ B cells (ELISA) [2]: 65%

Molecule: B1
- binding result [3]: binds

Molecule: B2
- binding result [3]: binds

Molecule: B3
- binding result (CTLA4Ig fusion protein): binds
